Source: patent US20050026839A1 (GENERAL HOSPITAL, published 2005)
Like-named read-outs stand apart in the source and are kept apart here. Square brackets hold non-standard residues; d marks the D form. Ends that are not written are not given here. hArg = N=C(N)NCCCC[C@H](N)C(=O)O; Nle = CCCC[C@H](N)C(=O)O; Aib = CC(C)(N)C(=O)O

Legend:
[1] = molecular target: T1, wild-type human PTH/PTHrP receptor (hP1R-WT) (human, UniProt Q03431 27-593); assay: cell-based or functional assay
T1 sequence (looked up): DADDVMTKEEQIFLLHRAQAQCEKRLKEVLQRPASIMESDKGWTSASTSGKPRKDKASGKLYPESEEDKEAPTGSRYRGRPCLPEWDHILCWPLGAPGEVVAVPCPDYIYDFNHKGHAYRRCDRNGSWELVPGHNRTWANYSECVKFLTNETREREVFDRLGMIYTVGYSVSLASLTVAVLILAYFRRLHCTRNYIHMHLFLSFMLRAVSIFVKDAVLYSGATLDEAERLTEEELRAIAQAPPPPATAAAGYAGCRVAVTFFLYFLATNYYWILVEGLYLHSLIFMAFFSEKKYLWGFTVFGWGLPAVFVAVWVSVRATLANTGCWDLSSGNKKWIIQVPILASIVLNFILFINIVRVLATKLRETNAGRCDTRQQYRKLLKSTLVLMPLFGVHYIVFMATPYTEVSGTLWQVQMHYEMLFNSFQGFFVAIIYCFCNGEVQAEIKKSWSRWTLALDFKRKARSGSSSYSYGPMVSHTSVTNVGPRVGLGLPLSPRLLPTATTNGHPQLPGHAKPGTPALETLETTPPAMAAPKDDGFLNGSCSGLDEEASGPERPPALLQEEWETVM

[2] = molecular target: T2, truncated human P1R deleted for residues (24-181) (hP1R-delNt) (human, UniProt Q03431 182-593); assay: competition binding vs 125I-[Aib1,3,M]PTH(1-21), COS-7 cells with hP1R-delNt
T2 construct: whole, on cells; also called delNT receptor
T2 sequence (looked up): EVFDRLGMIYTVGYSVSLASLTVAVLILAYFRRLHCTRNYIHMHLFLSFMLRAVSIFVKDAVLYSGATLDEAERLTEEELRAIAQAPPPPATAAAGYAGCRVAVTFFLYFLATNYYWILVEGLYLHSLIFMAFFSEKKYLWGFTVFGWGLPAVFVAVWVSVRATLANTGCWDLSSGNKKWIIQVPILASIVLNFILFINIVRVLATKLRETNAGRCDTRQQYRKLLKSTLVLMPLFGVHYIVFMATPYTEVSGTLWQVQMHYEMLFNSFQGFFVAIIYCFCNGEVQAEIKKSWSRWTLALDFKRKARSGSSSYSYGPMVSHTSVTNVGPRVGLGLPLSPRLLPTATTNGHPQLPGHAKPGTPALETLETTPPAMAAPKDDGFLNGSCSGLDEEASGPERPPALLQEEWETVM
Procedure: (§1) Stock solutions of EGTA/trypsin and antibiotics were from GIBCO; fetal bovine serum was from Hyclone Laboratories (Logan, Utah). […] All cells, in 24-well plates, were treated with fresh media and shifted to 33° C. for 12 to 24 h prior to assay.
(§2) Competition Binding. Binding reactions were performed with HKRK-B28 cells or in COS-7 cells in 24-well plates. The cells were rinsed with 0.5 mL of binding buffer, and then treated successively with 100 μL binding buffer, 100 μL of binding buffer containing various amounts of unlabeled competitor ligand, and 100 μL of binding buffer containing ca. 100,000 cpm of ¹²⁵I-[M]PTH(1-21) or ¹²⁵I-[Aib^{1,3},M]PTH(1-21)} (ca. 26 fmol; final volume=300 μL). Incubations were 4 to 6 h at 4° C., at which time near equilibrium conditions were attained. Cells were then placed on ice, the binding medium was removed, and the monolayer was rinsed three times with 0.5 mL of cold binding buffer. The cells were subsequently lysed with 0.5 mL […] NaOH and counted for radioactivity. For each tracer and in each experiment, the non-specific binding was determined as the radioactivity that bound in the presence of the same unlabeled peptide at a concentration of 1 μM, and was ˜1% of total radioactivity added for each tracer. The maximum specific binding (B₀) was the total radioactivity bound in the absence of competing ligand, corrected for nonspecific binding, and for each tracer, ranged from 8% to 20% of the total radioactivity added. Nonlinear regression was used to calculate binding IC₅₀ values (see below). Scatchard transformations of homologous competition binding data derived from studies with 26 fmol of ¹²⁵I-[Aib^{1,3},M]PTH(1-21) were employed for estimations of apparent equilibrium dissociation constant (kDapps) and total number of ligand binding sites (Bₘₐₓ), assuming a single class of binding sites and equal affinities of the iodinated and non iodinated ligand.

[3] = molecular target: T1, wild-type human PTH/PTHrP receptor …; assay: competition binding vs 125I-[Aib1,3,M]PTH(1-21), COS-7 cells with hP1R-WT
[4] = molecular target: T1, wild-type human PTH/PTHrP receptor …; assay: cell-based or functional assay; remark: listed apart in the source
[5] = molecular target: T2, truncated human P1R deleted for …; assay: cell-based or functional assay
[6] = molecular target: T2, truncated human P1R deleted for …; assay: cell-based or functional assay; remark: listed apart in the source
[7] = molecular target: T1, wild-type human PTH/PTHrP receptor …; assay: cell-based or functional assay; remark: listed apart in the source
[8] = molecular target: T1, wild-type human PTH/PTHrP receptor …; assay: competition binding, 125I-[M]PTH(1-21) tracer, HKRK-B28 cells, 4 h at 4 C
Procedure: as §2
Peptides PTH(1-34) ([Nle^{8,21}, Tyr³⁴]PTH(1-34)amide), [M]PTH(1-14) (M = Ala^{3,12}, Gln¹⁰, Har¹¹, Trp¹⁴), and [M]PTH(1-14 analogs, or C-terminally truncated derivatives thereof, containing α-aminoisobutyric acid (Aib) substitutions at the indicated positions were functionally evaluated in HKRK-B28 cells. “M” in [Aib^{1,3}, M]PTH(1-21) = Nle⁸, Gln¹⁰, Har¹¹, Ala¹², Trp¹⁴, Arg¹⁹ and Tyr²¹. The basal cAMP values (not subtracted) were 4.0 ± 0.1 pmole/well (n = 10). Peptides were based on the rat PTH sequence and were carboxy-amidated. Competition binding analyses were performed with ¹²⁵I-[M]PTH(1-21 )amide (Ala^{1,3}) as tracer for 4 h at 4° C. Data are means (±S.E.M.) Of the number of experiments indiated (n).

[9] = molecular target: T1, wild-type human PTH/PTHrP receptor …; assay: competition binding, 125I-[Aib1,3,M]PTH(1-21) tracer, COS-7 cells expressing hP1R-WT
Procedure: as §2

[10] = molecular target: T1, wild-type human PTH/PTHrP receptor …; assay: radioligand binding to HKRK-B28 cells
[11] = molecular target: T1, wild-type human PTH/PTHrP receptor …; assay: cell-based or functional assay; remark: listed apart in the source
[12] = molecular target: T2, truncated human P1R deleted for …; assay: cell-based or functional assay; remark: listed apart in the source
[13] = molecular target: wild-type human PTH/PTHrP receptor (hP1R-WT) (human) (UniProt Q03431); assay: competition binding, 125I-[M]PTH(1-21) tracer, HKRK-B28 cells
[14] = molecular target: wild-type human PTH/PTHrP receptor (hP1R-WT) (human) (UniProt Q03431); assay: cell-based or functional assay
[15] = molecular target: T2, truncated human P1R deleted for …; assay: radioligand binding, COS-7 cells with P1R-delNt
[16] = molecular target: T2, truncated human P1R deleted for …; assay: competition binding, 125I-[Aib1,3,M]PTH(1-21) tracer, COS-7 cells expressing hP1R-delNt
Procedure: as §1, §2

B1: [Aib^1,3,Gln^10]PTH(1-10) (peptide)
peptide: [Aib]V[Aib]EIQLMHQ-NH2
modifications: N-terminus assumed
SMILES: CC[C@H](C)[C@H](NC(=O)[C@H](CCC(=O)O)NC(=O)C(C)(C)NC(=O)[C@@H](NC(=O)C(C)(C)N)C(C)C)C(=O)N[C@@H](CCC(N)=O)C(=O)N[C@@H](CC(C)C)C(=O)N[C@@H](CCSC)C(=O)N[C@@H](Cc1c[nH]cn1)C(=O)N[C@@H](CCC(N)=O)C(N)=O
notes: also called 684 [Aib^1,3, M]PTH (1-10); [Aib^1,3,M]PTH(1-10)
In the case of B1, the “cAMP EC50” value [1] is reported as 16000 nM, the “cAMP EMax(obs.)” value [1] is reported as 111 pmole/well and the binding result [2] is reported as “no binding”. The binding result [3] was “no binding”, the “cAMP EC50” value [4] was 100000 nM and the “cAMP EMax(obs.)” value [4] was 120 pmole/well. For the same binder, the “cAMP EC50” value [5] was 53000 nM and the “cAMP EMax(obs.)” value [5] was 84 pmole/well.

With [Aib]V[Aib]EIQLMHQ[hArg]AKWLNSMRRVEWLRKKLQDVHNY-NH2 [[Aib^1,3,Gln^10,Har^11,Ala^12,Trp^14,Arg^19,Tyr^34]hPTH(1-34)] the “cAMP EC50” value [6] was 1.9 nM.

B2: [Nle^8,21,Tyr^34]PTH(1-34)amide (rat sequence) (peptide)
peptide: AVSEIQLXHNLGKHLASVERXQWLRKKLQDVHNY
modifications: Nle (norleucine) at 8 and 21; C-terminal amide
notes: also called 92 PTH(1-34); 92.5 PTH(1-34)
B2 was tested, and the “cAMP EC50 in SaOS-2 cells” value [7] was 0.2 nM, the IC50 [8] was 18 nM and the “cAMP EC50” value [1] was 2.5 nM. The “cAMP EMax(obs.)” value [1] was 280 pmole/well, the binding result [2] was “no binding” and the “PLC EC50” value [4] was 17 nM. For the same binder, the “PLC EMAX(obs.)” value [4] was 4.2 foldxbasal, the “cAMP EC50” value [4] was 1.4 nM and the “cAMP EMax(obs.)” value [4] was 240 pmole/well. For the same binder, the “cAMP EC50” value [5] was 680 nM, the “cAMP EMax(obs.)” value [5] was 220 pmole/well and the IC50 [9] was 12 nM.

AVAEIQL[Nle]HQ[hArg]AKWY-NH2 (also: 125I radiolabel, iodinated residue not given here) [^125I-[Ala^3,12Nle^8Gln^10,Har^11,Trp^14,Tyr^15]PTH(1-15)amide]: no binding [10].

For [Aib]V[Aib]EIQLMHNLGKHLNSMERVEWLRKKLQDVHNY-NH2 [[Aib^1,3,Tyr^34]-hPTH(1-34)], the “cAMP EC50” value [11] was 0.67 nM and the “cAMP EC50” value [12] was 43 nM.

In the case of AVSEIQLMHNLGKH-NH2 (also called 521 PTH(1-14)) [native PTH(1-14) (rat sequence, amide)], the binding result [2] is reported as “no binding”, the “cAMP EC50” value [4] is reported as 90000 nM and the “cAMP EMax(obs.)” value [4] is reported as 140 pmole/well. The “cAMP EC50” value [5] was 140000 nM and the “cAMP EMax(obs.)” value [5] was 110 pmole/well.

B3: [Aib^5,M]PTH(1-14) (peptide)
peptide: AVAE[Aib]QLMHQ[hArg]AKW-NH2
modifications: N-terminus assumed
SMILES: CSCC[C@H](NC(=O)[C@H](CC(C)C)NC(=O)[C@H](CCC(N)=O)NC(=O)C(C)(C)NC(=O)[C@H](CCC(=O)O)NC(=O)[C@H](C)NC(=O)[C@@H](NC(=O)[C@H](C)N)C(C)C)C(=O)N[C@@H](Cc1c[nH]cn1)C(=O)N[C@@H](CCC(N)=O)C(=O)N[C@@H](CCCCNC(=N)N)C(=O)N[C@@H](C)C(=O)N[C@@H](CCCCN)C(=O)N[C@@H](Cc1c[nH]c2ccccc12)C(N)=O
B3 was tested, and the fold reduction in affinity relative to [M]PTH(1-14) [13] was < 10 fold, the cAMP EC50 [14] was 66000 nM and the cAMP EMax(obs.) [14] was 169 pmole/well.

AVAEIQL[Nle]HQ[hArg]AKWLASVRRY-NH2 (also: 125I radioiodinated, residue not given here, Tracer radioligand) [^125I-[M]PTH(1-21)]: no binding [15].

B4: [Ala^3,12,Gln^10,Har^11,Trp^14]PTH(1-14)amide (peptide)
peptide: AVAEIQLMHQ[hArg]AKW-NH2
modifications: N-terminus assumed
SMILES: CC[C@H](C)[C@H](NC(=O)[C@H](CCC(=O)O)NC(=O)[C@H](C)NC(=O)[C@@H](NC(=O)[C@H](C)N)C(C)C)C(=O)N[C@@H](CCC(N)=O)C(=O)N[C@@H](CC(C)C)C(=O)N[C@@H](CCSC)C(=O)N[C@@H](Cc1c[nH]cn1)C(=O)N[C@@H](CCC(N)=O)C(=O)N[C@@H](CCCCNC(=N)N)C(=O)N[C@@H](C)C(=O)N[C@@H](CCCCN)C(=O)N[C@@H](Cc1c[nH]c2ccccc12)C(N)=O
notes: X = Har; also called [M]PTH(1-14); 621 [M]PTH(1-14)
For B4, the “cAMP EC50 in SaOS-2 cells” value [7] was 340 nM, the IC50 [8] was 13000 nM and the IC50 [16] was 17400 nM. The “cAMP EC50” value [1] was 100 nM, the “cAMP EMax(obs.)” value [1] was 270 pmole/well and the “PLC EC50” value [4] was 4700 nM. The “PLC EMAX(obs.)” value [4] was 3.9 foldxbasal, the “cAMP EC50” value [4] was 49 nM and the “cAMP EMax(obs.)” value [4] was 240 pmole/well. For the same binder, the “cAMP EC50” value [5] was 40 nM, the “cAMP EMax(obs.)” value [5] was 220 pmole/well and the IC50 [9] was 20000 nM.
